Experimental data as given in publication PMC7484307 (Archives of biochemistry and biophysics, 2020).

Molecular target: the molecule itself
Assay: AUC

B1: His-tagged ALDH9A1 (aldehyde dehydrogenase 9A1) (enzyme, human, UniProt P49189 1-494, looked up)
chain: MSTGTFVVSQPLNYRGGARVEPADASGTEKAFEPATGRVIATFTCSGEKEVNLAVQNAKAAFKIWSQKSGMERCRILLEAARIIREREDEIATMECINNGKSIFEARLDIDISWQCLEYYAGLAASMAGEHIQLPGGSFGYTRREPLGVCVGIGAWNYPFQIASWKSAPALACGNAMVFKPSPFTPVSALLLAEIYSEAGVPPGLFNVVQGGAATGQFLCQHPDVAKVSFTGSVPTGMKIMEMSAKGIKPVTLELGGKSPLIIFSDCDMNNAVKGALMANFLTQGQVCCNGTRVFVQKEILDKFTEEVVKQTQRIKIGDPLLEDTRMGPLINRPHLERVLGFVKVAKEQGAKVLCGGDIYVPEDPKLKDGYYMRPCVLTNCRDDMTCVKEEIFGPVMSILSFDTEAEVLERANDTTFGLAAGVFTRDIQRAHRVVAELQAGTCFINNYNVSPVELPFGGYKKSGFGRENGRVTIEYYSQLKTVCVEMGDVESAF
  stoichiometry N: 4
